Experimental data: patent publication US20140329228A1 (Ushio Denki Kabushiki Kaisha, priority 2011, published 2014)
Marks after values point to notes of the source that are not given here.

Columns and labels:
Assay type in all cases: binding
[1] = Measurement of ractopamine using fluoro-labeled Fab complex; details: 3.4 μg/mL Ractopamine versus absence of antigen, Ex/Em 530/580
[2] = Measurement of cannabinoid component THC using fluoro-labeled Fab complex; details: 100 μg/mL THC versus absence of antigen, Ex/Em 530/580
[3] = Measurement of cotinine using fluoro-labeled Fab complex; details: 3.5 μg/mL Cotinine versus absence of antigen, Ex/Em 530/580
[4] = Measurement of clenbuterol using fluoro-labeled Fab complex; details: 16 μg/mL Clenbuterol versus absence of antigen; Ex/Em 480/530
[5] = target: HSA (Homo sapiens, UniProt P02768); test: Fluorescence emission spectrum measurement, different-color double-label anti-SA Fab complex with HSA; details: antigen HSA; ratio to no antigen
From the text: Similarly, the different-color double-label Fab complex of the anti-SA antibody prepared in Example 1 comprising a polypeptide containing a heavy chain variable region (VH; SEQ ID NO: 12) of an anti-SA antibody labeled with a CR110, TAMRA, or ATTO 655 fluorescent dye and an antibody heavy chain constant domain (CH1; SEQ ID NO: 6), and a polypeptide containing a light chain variable region (VL; SEQ ID NO: 10) of an anti-SA antibody labeled with a dye differing from the above dye and an antibody light chain constant domain (Cκ; SEQ ID NO: 4) was reacted with antigenic HSA (0 to 100 μM), and then fluorescence intensity was measured. The ratio of the fluorescence intensity at each antigen concentration to the fluorescence intensity when no antigen was present was designated as the “fluorescence intensity ratio” and is shown in the graphs of FIG. 10. […]
Moreover, when irradiated with excitation light with a wavelength of 530 nm, fluorescence intensity ratios obtained at a fluorescence wavelength of about 530 nm in the case of CR110_TAMRA was higher than those of no_TAMRA, because of the quenching effect due to the interaction between the fluorescent dyes. […]

[6] = Fluorescence enhancement of fluoro-labeled Fab complex / scFv with morphine; details: antigen Morphine 100 μg/mL versus absence of antigen
[7] = Fluorescence enhancement of fluoro-labeled Fab complex with MDA; details: antigen MDA 100 μg/mL versus absence of antigen
[8] = Fluorescence enhancement of fluoro-labeled Fab complex / scFv with cocaine; details: antigen Cocaine 100 μg/mL versus absence of antigen
[9] = Fluorescence enhancement of fluoro-labeled Fab complex / scFv with ketamine; details: for Fluorescence enhancement: 1.0 mg/mL Ketamine versus absence of antigen, Ex/Em 530/580

B1: Anti-Ractopamine: same-color double-label Fab complex of anti-ractopamine antibody; TAMRA-labeled VL (SEQ ID NO: 17) and VH (SEQ ID NO: 18) (antibody, V domains shown)
VH: DVQLVESGPGLVKPSQSLSLTCTVTGYSITSDYAWNWIRQFPGNKLEWMGYIFYSGSTSYNPSLKSRISITRDTSKNQFFLQLNSVTTEDTATYFCARLAYYYDYDGYAMDYWGQGTSVTVSS
VL: DILMTQTPLSLPVSLGDQASISCRSSQNIVHSDGNTYLEWYLQKPGQSPKLLISKVSNRFSGVPDRFSGSGSGTDFTLKISRVEAEDLGIYYCFQGSHVPWTFGGGTKLEIKR
modifications: Fab; TAMRA labels; Ract-VH-18; Ract-VL-17
Fluorescence enhancement [1]: 2.3*^1
Fluorescence enhancement ([1]; listed as anti-ractopamine): 2.3

B2: Anti-THC: same-color double-label Fab complex of anti-THC antibody; TAMRA-labeled VL (SEQ ID NO: 29) and VH (SEQ ID NO: 30) (antibody, V domains shown)
VH: EVKLVESGGGLVKPGGSLKLSCAASGFTFNNYVMVWLRQTPEKRLEWVASISRGGSTYYPDSVKGRFTISRDNARNILYLQMSSLRSEDTAMYYCVRGTTIVAGDVWGAGTTVTVSS
VL: DIVLTQSPTTMAASPGEKITITCSASSSISSNYLHWYQQKPGFSPKLLIYRTSNLASGVPARFSGSGSGTSYSLTIGTMEAEDVATYYCQQGSSIPLTFGAGTKLELKR
modifications: Fab; TAMRA labels; THC-VH-30; THC-VL-29
Fluorescence enhancement [2]: 1.3*^1
Fluorescence enhancement ([2]; listed as anti-THC): 1.3

B3: Anti-cotinine: same-color double-label Fab complex of anti-cotinine antibody; TAMRA-labeled VL (SEQ ID NO: 19) and VH (SEQ ID NO: 20) (antibody, V domains shown)
VH: QQQLVESGGRLVTPGGSLTLTCTASGFSLNNYWMSWVRQAPGKGLEWIGDIHGNRGFNYHASWAKGRFTVSRTSTTVDLRMTSLTTEDTAIYFCARADDSGSHDIWGPGTLVTVSS
VL: ELDLTQTPSPVSAAVGDTVTINCQSSQSVYSAKLSWYQQKPGQPPKLLIYYGSTLASGVPSRFKGSGSGTQFSLTISDVQCADAATYYCQGTYYGPDWYFAFGGGTEVVVKR
modifications: Fab; TAMRA labels; Coti-VH-20; Coti-VL-19
Fluorescence enhancement [3]: 1.9*^2
Fluorescence enhancement ([3]; listed as anti-cotinine): 1.9

B4: Anti-Clenbuterol: different-color double-label Fab complex of anti-clenbuterol antibody; CR110-labeled VL (SEQ ID NO: 15)+Cκ, TAMRA-labeled VH (SEQ ID NO: 16)+CH1 (antibody, V domains shown)
VH: QVKLQESGGGLVKPRGSLKLSCAASGFTFSSYDMSWVRQTPEKRLEWVASIRSGGYYTLYPDSVKGRFTISRDNVKNTLYLQMSSLRSEDTAMYYCSRDGNDEYFDVWGAGTTVTVSS
VL: DIELTQSPAILSASPGEKVTMTCSANSSVSYMHWYQQKSRTSPKLWIYDTSKLASGVPGRFSGSGSGNSYSLTISSMEAEDVATYYCFQGSKYPFTFGSGTRLEIKR
modifications: Ckappa and CH1 without entry; CR110, TAMRA labels; Clen-VH-16; Clen-VL-15
Fluorescence enhancement [4]: 1.5

B5: CR110_TAMRA: different-color double-label Fab complex of anti-SA antibody; CR110-labeled VH (SEQ ID NO: 12)+CH1, TAMRA-labeled VL (SEQ ID NO: 10)+Cκ (antibody, V domains shown)
VH: EVQLLESGGGLVQPGGSLRLSCAASGFTFSSYAMSWVRQAPGKGLEWVSHISPYGANTRYADSVKGRFTISRDNSKNTLYLQMNSLRAEDTAVYYCAKGLRAFDYWGQGTLVTVSS
VL: DIQMTQSPSSLSASVGDRVTITCRASQSISSYLNWYQQKPGKAPKLLIYRASLLQSGVPSRFSGSGSGTDFTLTISSLQPEDFATYYCQQGRDRPATFGQGTKVEIKR
modifications: CH1 and Ckappa constant domains; CR110 and TAMRA labels; anti-SA antibody VH; anti-SA antibody VL
maximum fluorescence enhancement [5]: 75 fold

B6: Anti-Cocaine: same-color double-label Fab complex of anti-cocaine antibody; TAMRA-labeled VL (SEQ ID NO: 27) and VH (SEQ ID NO: 28) (antibody, V domains shown)
VH: DVTLQESGGGLVQPGGSMKLSCAASGFTFSDAWVDWVRQSPGKGLEWVAEIRNKANNHATKYTESVKGRFTISRDDSKSSVYLQMNSLRAEDTGIYYCTSVPQLGRGFAYWGQGTLVTVSS
VL: DIVMTQAAPSVPVTPGESVSISCRSSKSLLHSNGYTYLHWFLQRPGQSPQLLIYRVSNLASGVPDRFSGSGSGTAFTLRFSRVEAEDVGVYYCMQHLEYPFTFGSGTKLEIKR
modifications: Fab; TAMRA labels; Coca-VH-28; Coca-VL-27
Fluorescence enhancement in the presence of 100 μg/mL antigen [6]: 0.9
Fluorescence enhancement in the presence of 100 μg/mL antigen [7]: 0.9
Fluorescence enhancement in the presence of 100 μg/mL antigen [8]: 3.7
Fluorescence enhancement in the presence of 100 μg/mL antigen ([9]; antigen Ketamine 100 μg/mL versus absence of antigen): 0.9

B7: Anti-Ketamine: same-color double-label Fab complex of anti-ketamine antibody; TAMRA-labeled VL (SEQ ID NO: 31) and VH (SEQ ID NO: 32) (antibody, V domains shown)
VH: QVQLKESGPGLVAPSQSLSITCTVSGFALTGYGVNWVRQPPGKGLEWLGMIWGDGNTDYNSALKSRLSISKDNSKSQVFLKMNSLQTDDTARYYCARGNGYFYVLDYWGQGTSVTVSS
VL: QAVVTQESALTTSPGETVTLTCRSSTGAVTTSNYANWVQEKPDHLFTGLIGGTNNRAPGVPARFSGSLIGDKAALTITGAQTEDEAIYFCSLWYSNHLVFGGGTKLTVLGQ
modifications: Fab; TAMRA labels; Keta-VH-32; Keta-VL-31
Fluorescence enhancement [9]: 2.0*^2
Fluorescence enhancement ([9]; listed as anti-ketamine): 2.0
